{"source": "patent US6599706B1", "about": "“Recombinant PR-3 and assays employing the same” (Chiron Corporation, priority 1994, dated 2003)", "molecules": {"B1": {"name": "PR-3: purified active recombinant human PR-3 serine protease produced from proPR-3 in Sf9 cells, activated with DPPI (protein)", "chain": "MAHRPPSPALASVLLALLLSGAARAAEIVGGHEAQPHSRPYMASLQMRGNPGSHFCGGTLIHPSFVLTAAHCLRDIPQRLVNVVLGAHNVRTQEPTQQHFSVAQVFLNNYDAENKLNDILLIQLSSPANLSASVATVQLPQQDQPVPHGTQCLAMGWGRVGAHDPPAQVLQELNVTVVTFFCRPHNICTFVPRRKAGICFGDSGGPLICDGIIQGIDSFVIWGCATRLFPDFFTRVALYVDWIRSTLRRVEAKGRP"}}, "key": {"[1]": {"assay": "Enzymatic activity of purified recombinant PR-3 on Boc-Ala-ONP", "format": "biochemical, human", "method": "In order to generate therapeutic-grade PR-3, the Mono-S purified recombinant PR-3 (obtained as described in Example 16) was subjected to size-exclusion chromatography. 0.8 mg of protein from the Mono-S pool was concentrated to 2 mg/ml by Amicon YM10 ultrafiltration and loaded onto a S-300 HR column (1.6×60 cm. Pharmacia Biotechnology, Inc., NJ) and chromatographed with a mobile phase of PBS containing 0.04% Triton X-100. Fractions enriched in PR-3 were detected by assaying for enzymatic activity (Boc-Ala-ONP assay) and analyzing on SDS-PAGE with Coomassie blue staining. A single band of 28 kD was observed. The PR-3 eluted with a retention time correlating to an apparent molecular mass of 35 kD as compared to BSA and chymotrypsinogen A chromatographed in the same buffer. This process produced PR-3 that was ≧95% pure with an overall recovery of about 25% and a lipopolysaccharide content of ≦about 10 ng per mg of protein as measured using an Limulus Amoebocyte Lysate Assay (Associates of Cape Cod, Inc., Woods Hole, Mass.). The purified enzyme has a specific activity of approximately 30 units per mg (where a unit is defined as 1 micromole of product produced from cleavage of Boc-Ala-ONP permin. at 25° C., pH 7.5) and a Kcat of approximately 12 per second."}, "[2]": {"assay": "Storage stability of active recombinant PR-3", "format": "physicochemical", "conditions": "4° C.; phosphate buffer pH 7.0 with 0.1% Triton X-100, NaCl eluate", "method": "The proPR-3 was purified as described above through the Mono-S-Sepharose step and the DPPI activation. At the end of the activation reaction, the PR-3 was diluted 3-fold using deionized water and loaded onto a Pharmacia Mono-S column, previously equilibrated in loading buffer B (10 mM sodium phosphate buffer, pH 7.0, containing 0.1% (v/v) Triton X-100). After washing the column with three bed volumes of loading buffer B, the column was eluted with a 20-minute, 0-0.8 M sodium chloride gradient at 1 ml/min flow rate. PR-3 eluted as the only major peak of protein in the gradient. PR-3 activity was measured across the column by diluting 10 μl of each fraction into 100 mM sodium phosphate buffer containing 10% acetonitrile and 0.5 mM Boc-Ala-ONp. The absorbance at 402 nm of each assay sample was measured after approximately 10 min. Fractions containing activated PR-3 were pooled and stored at 4° C. […] The active PR-3 was stable over 1 month at 4° C. under these conditions"}}}
{"molecule": "B1", "values": [{"measurement": "Kcat", "setting": "[1]; Boc-Ala-ONP", "value": "approximately 12 per second"}, {"measurement": "specific activity", "setting": "[1]; unit = 1 micromole product per min at 25° C., pH 7.5", "value": "approximately 30 units per mg"}, {"measurement": "stability on storage", "setting": "[2]", "value": "over 1 month"}]}
